In PMC3170884 (Frontiers in Physiology, 2011):

Tests used:
[1] = molecular target: recombinant human BMP2 derived from E. coli expression (human) (UniProt P12643); test: SPR
[2] = molecular target: recombinant human BMP2 derived from E. coli expression (human, UniProt P12643 283-396); test: SPR
recombinant human BMP2 derived from E. coli expression, sequence (P12643 283-396): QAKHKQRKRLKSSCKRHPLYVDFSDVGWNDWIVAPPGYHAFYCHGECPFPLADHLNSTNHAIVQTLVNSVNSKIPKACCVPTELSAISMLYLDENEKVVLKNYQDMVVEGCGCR

recombinant human BMP2 derived from E. coli expression (human), sequence (P12643 283-396): as above

Molecule: Xenopus Tsg (xTsg) from E. coli, non-glycosylated (natural protein)
- Kd [1]: 20.2 nM
- koff [1]: 0.00071 s⁻¹
- kon [1]: 38000 M⁻¹ s⁻¹

Molecule: Xenopus Tsg (xTsg) from insect cells, glycosylated (natural protein)
- Kd [1]: 2.5 nM
- koff [1]: 0.0002 s⁻¹
- kon [1]: 110000 M⁻¹ s⁻¹

B1: mouse TWSG1 (mTWSG1) from E. coli, non-glycosylated (natural protein, UniProt Q9EP52 25-222, looked up)
chain: CNKALCASDVSKCLIQELCQCRPGEGNCPCCKECMLCLGALWDECCDCVGMCNPRNYSDTPPTSKSTVEELHEPIPSLFRALTEGDTQLNWNIVSFPVAEELSHHENLVSFLETVNQLHHQNVSVPSNNVHAPFPSDKERMCTVVYFDDCMSIHQCKISCESMGASKYRWFHNACCECIGPECIDYGSKTVKCMNCMF
- KD of the low affinity interaction of the biphasic binding [2]: 301 nM
- KD of the slow (high affinity) interaction of the biphasic binding [2]: 39.6 nM
